US20250197501A1

What was measured:
[1] = molecular target: recombinant cynomolgus monkey B7-H3 protein (cynomolgus monkey); experiment: ELISA, plate coated with cynomolgus monkey B7-H3
[2] = molecular target: recombinant cynomolgus monkey B7-H3 protein (cynomolgus monkey); experiment: SPR (Biacore), antibody captured on anti-human IgG chip, B7-H3 protein injected
[3] = molecular target: T1, recombinant human B7-H3-mFc protein (human) (UniProt Q5ZPR3); experiment: competitive binding ELISA on B7-H3 protein, no competitor
T1 sequence: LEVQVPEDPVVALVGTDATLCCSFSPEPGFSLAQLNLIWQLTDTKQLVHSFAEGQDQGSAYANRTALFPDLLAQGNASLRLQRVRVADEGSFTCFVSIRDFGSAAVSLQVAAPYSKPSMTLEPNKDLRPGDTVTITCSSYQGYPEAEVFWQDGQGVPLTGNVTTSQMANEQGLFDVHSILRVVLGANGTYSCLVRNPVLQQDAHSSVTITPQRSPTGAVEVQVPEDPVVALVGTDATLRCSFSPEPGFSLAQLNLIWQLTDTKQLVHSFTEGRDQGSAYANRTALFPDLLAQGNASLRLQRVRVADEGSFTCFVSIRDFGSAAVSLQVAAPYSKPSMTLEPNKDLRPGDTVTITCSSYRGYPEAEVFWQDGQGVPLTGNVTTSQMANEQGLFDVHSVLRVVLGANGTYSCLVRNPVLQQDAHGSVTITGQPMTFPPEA

[4] = molecular target: T1, recombinant human B7-H3-mFc protein (human); experiment: competitive binding ELISA on B7-H3 protein, competitor mAb 91H06
[5] = molecular target: T1, recombinant human B7-H3-mFc protein (human); experiment: competitive binding ELISA on B7-H3 protein, competitor Ifinatamab (4 µg/mL)

B1: mAb 91H06 (antibody, V domains shown)
VH: EVQLVESGGGLVQPGGSLRLSCAASGFTFSDYGMGWVRQAPGKGLEWVSSISWDSSSKEYADSVKGRFTISRDNSKNTLYLQMNSLRAEDTAVYYCARAWIAIIGGGAHFDYWGQGTLVTVSS
VL: DIQMTQSPSSLSASVGDRVTITCRASQSVSSHLAWYQQKPGKAPKLLIYLTSSLQSGVPSRFSGSGSGTDFTLTISSLQPEDFATYYCMQSKSLPFTFGQGTKVEIKR
EC50 [1]: 0.0244 nM
Kd [2]: 0.471 nM

B2: Ifinatamab-biotin (antibody, INN chains, looked up, V domains shown)
VH: QVQLVQSGAEVKKPGSSVKVSCKASGYTFTNYVMHWVRQAPGQGLEWMGYINPYNDDVKYNEKFKGRVTITADESTSTAYMELSSLRSEDTAVYYCARWGYYGSPLYYFDYWGQGTLVTVSS
VL: EIVLTQSPATLSLSPGERATLSCRASSRLIYMHWYQQKPGQAPRPLIYATSNLASGIPARFSGSGSGTDFTLTISSLEPEDFAVYYCQQWNSNPPTFGQGTKVEIK
modifications: biotin
EC50 [3]: 0.0331 nM
EC50 [4]: 0.0346 nM
EC50 [5]: 1.78 nM
